Biological target: T1, CRLuc-H2B (Arabidopsis HISTONE 2B fused to the C-terminal fragment of Renilla luciferase) (Arabidopsis, UniProt Q9FFC0 1-145)
T1 construct: Arabidopsis HISTONE 2B (H2B), locus AT5G22880; cDNA inserted in a pDuEx vector; source: rice protoplasts, transformed (PEG) with a pDuEx vector (35S promoter), in cells
Experiment: split reporter (BiFC, NanoBiT); split Renilla luciferase complementation in living rice protoplasts, 96-well plate, W5 buffer, ViviRen substrate, RLU read 16 h after transformation; no hormone added (before the hormone or with W5 buffer only); H2A-H2B also tested with GA3 (Figure S1), RLU not increased
Settings: partners not purified

T1 sequence (Q9FFC0 whole entry, the tested form may be a part): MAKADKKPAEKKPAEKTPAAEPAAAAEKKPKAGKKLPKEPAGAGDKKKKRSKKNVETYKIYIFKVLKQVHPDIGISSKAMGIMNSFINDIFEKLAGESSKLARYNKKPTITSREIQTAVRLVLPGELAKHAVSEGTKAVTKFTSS

B1: NRLuc-H2A (Arabidopsis HISTONE 2A fused to the N-terminal fragment of Renilla luciferase) (natural protein)
chain: not shown
notes: Arabidopsis HISTONE 2A (H2A), locus AT4G27230; cDNA inserted in a pDuEx vector; source: rice protoplasts, transformed (PEG) with a pDuEx vector (35S promoter), in cells
fold RLU over a non-interaction protein pair: 10 fold
fold RLU over mock transformed protoplasts: 21 fold

Source: paper PMC4077619, “Split luciferase complementation assay to detect regulated protein-protein interactions in rice protoplasts in a large-scale format” (Rice, 2014)
